Assay results from the supplement of paper PMC10567573.

B1: FAM164C (parent)
chain: YPHCTGISQQDPESDSQGQGNGLF

Variants of: B1
Assay: protein stability index of a GFP-peptide fusion (GPS, HEK-293T) (PSI 1-6); higher = more stable
Conditions: c terminus: a fixed tail appended
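Further: lentivirally expressed fusions sorted by FACS into six bins by GFP to DsRed ratio, PSI derived from sequencing read proportions per bin multiplied by bin number.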

Variant	protein stability index
YPHCKGISQQDPESDSQGQGNGLF [T5K]	3.55
YPHCPGISQQDPESDSQGQGNGLF [T5P]	3.25
YPHCSGISQQDPESDSQGQGNGLF [T5S]	3.53
YPHCNGISQQDPESDSQGQGNGLF [T5N]	3.32
YPHCEGISQQDPESDSQGQGNGLF [T5E]	4.49
YPHCMGISQQDPESDSQGQGNGLF [T5M]	2.23
YPHCIGISQQDPESDSQGQGNGLF [T5I]	3.34
YPHCHGISQQDPESDSQGQGNGLF [T5H]	3.2
YPHCRGISQQDPESDSQGQGNGLF [T5R]	2.71
YPHCLGISQQDPESDSQGQGNGLF [T5L]	2.35
YPHCGGISQQDPESDSQGQGNGLF [T5G]	2.93
YPHCYGISQQDPESDSQGQGNGLF [T5Y]	3.17
YPHCFGISQQDPESDSQGQGNGLF [T5F]	2.32
YPHCCGISQQDPESDSQGQGNGLF [T5C]	1.9
YPHCWGISQQDPESDSQGQGNGLF [T5W]	1.68
YPHCAGISQQDPESDSQGQGNGLF [T5A]	3.46
YPHCQGISQQDPESDSQGQGNGLF [T5Q]	3.89
YPHCVGISQQDPESDSQGQGNGLF [T5V]	3.18
YPHCDGISQQDPESDSQGQGNGLF [T5D]	4.6
YPHCTWISQQDPESDSQGQGNGLF [G6W]	2.87
YPHCTNISQQDPESDSQGQGNGLF [G6N]	3.56
YPHCTRISQQDPESDSQGQGNGLF [G6R]	3.45
YPHCTTISQQDPESDSQGQGNGLF [G6T]	3.51
YPHCTHISQQDPESDSQGQGNGLF [G6H]	3.62

Variant	protein stability index
YPHCTIISQQDPESDSQGQGNGLF [G6I]	3.25
YPHCTCISQQDPESDSQGQGNGLF [G6C]	2.46
YPHCTQISQQDPESDSQGQGNGLF [G6Q]	3.58
YPHCTYISQQDPESDSQGQGNGLF [G6Y]	2.77
YPHCTLISQQDPESDSQGQGNGLF [G6L]	3.25
YPHCTKISQQDPESDSQGQGNGLF [G6K]	3.23
YPHCTVISQQDPESDSQGQGNGLF [G6V]	4.17
YPHCTAISQQDPESDSQGQGNGLF [G6A]	3.53
YPHCTFISQQDPESDSQGQGNGLF [G6F]	3.01
YPHCTDISQQDPESDSQGQGNGLF [G6D]	4.23
YPHCTSISQQDPESDSQGQGNGLF [G6S]	3.82
YPHCTEISQQDPESDSQGQGNGLF [G6E]	4.46
YPHCTMISQQDPESDSQGQGNGLF [G6M]	3.34
YPHCTPISQQDPESDSQGQGNGLF [G6P]	2.25
YPHCTGISQQDCESDSQGQGNGLF [P12C]	3.77
YPHCTGISQQDFESDSQGQGNGLF [P12F]	3.56
YPHCTGISQQDHESDSQGQGNGLF [P12H]	3.73
YPHCTGISQQDYESDSQGQGNGLF [P12Y]	3.54
YPHCTGISQQDEESDSQGQGNGLF [P12E]	4.08
YPHCTGISQQDNESDSQGQGNGLF [P12N]	3.48
YPHCTGISQQDLESDSQGQGNGLF [P12L]	3.65
YPHCTGISQQDTESDSQGQGNGLF [P12T]	3.74
YPHCTGISQQDVESDSQGQGNGLF [P12V]	3.96
YPHCTGISQQDIESDSQGQGNGLF [P12I]	3.51

Variant	protein stability index
YPHCTGISQQDSESDSQGQGNGLF [P12S]	3.98
YPHCTGISQQDGESDSQGQGNGLF [P12G]	3.45
YPHCTGISQQDQESDSQGQGNGLF [P12Q]	3.71
YPHCTGISQQDRESDSQGQGNGLF [P12R]	3.18
YPHCTGISQQDKESDSQGQGNGLF [P12K]	3.57
YPHCTGISQQDAESDSQGQGNGLF [P12A]	3.95
YPHCTGISQQDMESDSQGQGNGLF [P12M]	3.6
YPHCTGISQQDDESDSQGQGNGLF [P12D]	3.91
YPHCTGISQQDWESDSQGQGNGLF [P12W]	3.27
YPSCTGISQQDPESDSQGQGNGLF [H3S]	3.07
YPVCTGISQQDPESDSQGQGNGLF [H3V]	4.34
YPTCTGISQQDPESDSQGQGNGLF [H3T]	4.12
YPYCTGISQQDPESDSQGQGNGLF [H3Y]	3.2
YPWCTGISQQDPESDSQGQGNGLF [H3W]	3.22
YPHCTGIVQQDPESDSQGQGNGLF [S8V]	3.73
YPHCTGIAQQDPESDSQGQGNGLF [S8A]	3.51
YPHCTGIWQQDPESDSQGQGNGLF [S8W]	1.84
YPHCTGITQQDPESDSQGQGNGLF [S8T]	3.74
YPHCTGIPQQDPESDSQGQGNGLF [S8P]	3.91
YPHCTGIFQQDPESDSQGQGNGLF [S8F]	2.69
YPHCTGIDQQDPESDSQGQGNGLF [S8D]	3.91
YPHCTGINQQDPESDSQGQGNGLF [S8N]	3.39
YPHCTGILQQDPESDSQGQGNGLF [S8L]	3.35
YPHCTGIIQQDPESDSQGQGNGLF [S8I]	3.59

Variant	protein stability index
YPHCTGICQQDPESDSQGQGNGLF [S8C]	3.11
YPHCTGIYQQDPESDSQGQGNGLF [S8Y]	2.75
YPHCTGIQQQDPESDSQGQGNGLF [S8Q]	3.95
YPHCTGIRQQDPESDSQGQGNGLF [S8R]	3.57
YPHCTGIGQQDPESDSQGQGNGLF [S8G]	3.52
YPHCTGIKQQDPESDSQGQGNGLF [S8K]	4.15
YPHCTGIHQQDPESDSQGQGNGLF [S8H]	3.65
YPHCTGIMQQDPESDSQGQGNGLF [S8M]	3.33
YPHCTGIEQQDPESDSQGQGNGLF [S8E]	4.17
YPHCTGISQQDPASDSQGQGNGLF [E13A]	3.46
YPHCTGISQQDPDSDSQGQGNGLF [E13D]	3.87
YPHCTGISQQDPFSDSQGQGNGLF [E13F]	2.44
YPHCTGISQQDPPSDSQGQGNGLF [E13P]	3.51
YPHCTGISQQDPKSDSQGQGNGLF [E13K]	3.28
YPHCTGISQQDPHSDSQGQGNGLF [E13H]	3.4
YPHCTGISQQDPMSDSQGQGNGLF [E13M]	3.21
YPHCTGISQQDPISDSQGQGNGLF [E13I]	3.21
YPHCTGISQQDPGSDSQGQGNGLF [E13G]	3.38
YPHCTGISQQDPCSDSQGQGNGLF [E13C]	3.34
YPHCTGISQQDPLSDSQGQGNGLF [E13L]	2.81
YPHCTGISQQDPNSDSQGQGNGLF [E13N]	3.23
YPHTTGISQQDPESDSQGQGNGLF [C4T]	4.32
YPHETGISQQDPESDSQGQGNGLF [C4E]	4.82
YPHDTGISQQDPESDSQGQGNGLF [C4D]	5.02

Variant	protein stability index
YPHSTGISQQDPESDSQGQGNGLF [C4S]	4.16
YPHQTGISQQDPESDSQGQGNGLF [C4Q]	4.53
YPHFTGISQQDPESDSQGQGNGLF [C4F]	3.58
YPHPTGISQQDPESDSQGQGNGLF [C4P]	3.37
YPHHTGISQQDPESDSQGQGNGLF [C4H]	4.24
YPHVTGISQQDPESDSQGQGNGLF [C4V]	4.07
YPHITGISQQDPESDSQGQGNGLF [C4I]	3.72
YPHATGISQQDPESDSQGQGNGLF [C4A]	3.92
YPHMTGISQQDPESDSQGQGNGLF [C4M]	4.36
YPHWTGISQQDPESDSQGQGNGLF [C4W]	2.75
YPHNTGISQQDPESDSQGQGNGLF [C4N]	4.25
YPHRTGISQQDPESDSQGQGNGLF [C4R]	4.06
YPHGTGISQQDPESDSQGQGNGLF [C4G]	3.5
YPHKTGISQQDPESDSQGQGNGLF [C4K]	4.39
YPHLTGISQQDPESDSQGQGNGLF [C4L]	4.36
YPHYTGISQQDPESDSQGQGNGLF [C4Y]	3.17
YPHCTGISQMDPESDSQGQGNGLF [Q10M]	3.84
YPHCTGISQDDPESDSQGQGNGLF [Q10D]	3.68
YPHCTGISQFDPESDSQGQGNGLF [Q10F]	3.19
YPHCTGISQKDPESDSQGQGNGLF [Q10K]	4
YPHCTGISQNDPESDSQGQGNGLF [Q10N]	4.05
YPHCTGISQGDPESDSQGQGNGLF [Q10G]	3.88
YPHCTGISQVDPESDSQGQGNGLF [Q10V]	3.74
YPHCTGISQPDPESDSQGQGNGLF [Q10P]	3.78

Variant	protein stability index
YPHCTGISQRDPESDSQGQGNGLF [Q10R]	3.54
YPHCTGISQADPESDSQGQGNGLF [Q10A]	3.48
YPHCTGISQTDPESDSQGQGNGLF [Q10T]	3.64
YPHCTGISQSDPESDSQGQGNGLF [Q10S]	3.48
YPHCTGISQYDPESDSQGQGNGLF [Q10Y]	3.07
YPHCTGISQIDPESDSQGQGNGLF [Q10I]	3.64
YPHCTGISQLDPESDSQGQGNGLF [Q10L]	2.96
YPHCTGISQHDPESDSQGQGNGLF [Q10H]	3.65
YPHCTGISQEDPESDSQGQGNGLF [Q10E]	3.87
YPHCTGISQWDPESDSQGQGNGLF [Q10W]	2.87
YPHCTGISQCDPESDSQGQGNGLF [Q10C]	3.1
YPHCTGISKQDPESDSQGQGNGLF [Q9K]	3.42
YPHCTGISMQDPESDSQGQGNGLF [Q9M]	3.49
YPHCTGISGQDPESDSQGQGNGLF [Q9G]	3.85
YPHCTGISYQDPESDSQGQGNGLF [Q9Y]	3.11
YPHCTGISNQDPESDSQGQGNGLF [Q9N]	3.5
YPHCTGISVQDPESDSQGQGNGLF [Q9V]	3.19
YPHCTGISFQDPESDSQGQGNGLF [Q9F]	3.05
YPHCTGISIQDPESDSQGQGNGLF [Q9I]	3.71
YPHCTGISWQDPESDSQGQGNGLF [Q9W]	2.48
YPHCTGISRQDPESDSQGQGNGLF [Q9R]	3.68
YPHCTGISEQDPESDSQGQGNGLF [Q9E]	3.89
YPHCTGISHQDPESDSQGQGNGLF [Q9H]	3.58
YPHCTGISPQDPESDSQGQGNGLF [Q9P]	3.67

Variant	protein stability index
YPHCTGISSQDPESDSQGQGNGLF [Q9S]	3.97
YPHCTGISAQDPESDSQGQGNGLF [Q9A]	4.06
YPHCTGISLQDPESDSQGQGNGLF [Q9L]	2.98
YPHCTGISDQDPESDSQGQGNGLF [Q9D]	3.91
YPHCTGISTQDPESDSQGQGNGLF [Q9T]	3.63
YPHCTGISCQDPESDSQGQGNGLF [Q9C]	3.43
YPHCTGISQQLPESDSQGQGNGLF [D11L]	3.37
YPHCTGISQQAPESDSQGQGNGLF [D11A]	3.66
YPHCTGISQQPPESDSQGQGNGLF [D11P]	3.85
YPHCTGISQQVPESDSQGQGNGLF [D11V]	3.5
YPHCTGISQQRPESDSQGQGNGLF [D11R]	3.29
YPHCTGISQQNPESDSQGQGNGLF [D11N]	3.62
YPHCTGISQQCPESDSQGQGNGLF [D11C]	3.15
YPHCTGISQQMPESDSQGQGNGLF [D11M]	3.41
YPHCTGISQQFPESDSQGQGNGLF [D11F]	2.96
YPHCTGISQQEPESDSQGQGNGLF [D11E]	4.2
YPHCTGISQQYPESDSQGQGNGLF [D11Y]	2.94
YPHCTGISQQKPESDSQGQGNGLF [D11K]	3.85
YPHCTGISQQTPESDSQGQGNGLF [D11T]	3.17
YPHCTGISQQIPESDSQGQGNGLF [D11I]	3.1
YPHCTGISQQQPESDSQGQGNGLF [D11Q]	3.73
YPHCTGISQQHPESDSQGQGNGLF [D11H]	3.12
YPHCTGISQQGPESDSQGQGNGLF [D11G]	3.18
YPHCTGISQQWPESDSQGQGNGLF [D11W]	2.32

Variant	protein stability index
YPHCTGISQQSPESDSQGQGNGLF [D11S]	3.58
YPHCTGWSQQDPESDSQGQGNGLF [I7W]	1.51
YPHCTGSSQQDPESDSQGQGNGLF [I7S]	3.86
YPHCTGASQQDPESDSQGQGNGLF [I7A]	4.04
YPHCTGNSQQDPESDSQGQGNGLF [I7N]	4.11
YPHCTGCSQQDPESDSQGQGNGLF [I7C]	3.56
YPHCTGKSQQDPESDSQGQGNGLF [I7K]	3.56
YPHCTGPSQQDPESDSQGQGNGLF [I7P]	4.18
YPHCTGESQQDPESDSQGQGNGLF [I7E]	4.68
YPHCTGMSQQDPESDSQGQGNGLF [I7M]	3.38
YPHCTGRSQQDPESDSQGQGNGLF [I7R]	3.94
YPHCTGFSQQDPESDSQGQGNGLF [I7F]	2.21
YPHCTGLSQQDPESDSQGQGNGLF [I7L]	3.9
YPHCTGDSQQDPESDSQGQGNGLF [I7D]	4.45
YPHCTGTSQQDPESDSQGQGNGLF [I7T]	3.95
YPHCTGYSQQDPESDSQGQGNGLF [I7Y]	2.64
YPHCTGGSQQDPESDSQGQGNGLF [I7G]	3.83
YPHCTGQSQQDPESDSQGQGNGLF [I7Q]	4.01
YPHCTGHSQQDPESDSQGQGNGLF [I7H]	4
YPHCTGVSQQDPESDSQGQGNGLF [I7V]	3.82
